Reference: US20260066079A1 (published 2026)
Substitutions are numbered along the chain they refer to. Each block holds one binder with its values, some of them ahead of it.

Target: T1, TL1A in human blood (endogenous) (human, UniProt O95150 72-251, limits assumed)
T1 sequence (looked up): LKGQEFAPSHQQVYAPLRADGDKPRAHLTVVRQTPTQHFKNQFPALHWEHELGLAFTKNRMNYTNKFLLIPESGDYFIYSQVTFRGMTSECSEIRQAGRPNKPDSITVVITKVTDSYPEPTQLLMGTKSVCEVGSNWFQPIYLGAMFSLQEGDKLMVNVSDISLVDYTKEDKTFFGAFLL
Test: cell-based or functional assay

% Inhibition at 1 nM Ig (inhibition of interferon gamma release in human blood): 51.3%
% Inhibition at 10 nM Ig (inhibition of interferon gamma release in human blood): 72.4%
B1: A147 (antibody, human IgG1, V domains shown)
VH: QVQLVQSGAEVKKPGASVKVSCKASGFDIQDTYMHWVKQRPGQGLEWMGRIEPASGHIKYDPKFQGRVTMTRDTSTSTVYMELSSLRSEDTAVYYCARSGGLPDWWGQGTTVTVSS
VL: EIVLTQSPGTLSLSPGERATLSCRASSSVSYMYWYQQKPGQAPRPLIYATSNLASGIPDRFSGSGSGTDFTLTISRLEPEDFAVYYCQQWEGNPRTFGGGTKLEIK

% Inhibition at 1 nM Ig (inhibition of interferon gamma release in human blood): 36.9%
% Inhibition at 10 nM Ig (inhibition of interferon gamma release in human blood): 63.2%
B4: A220 (antibody, human IgG1, V domains shown)
VH: B1 VH with E52D, I58T, G66V, V79A, M81L, W105V
VL: B1 VL with L46W

Further lines, the binder ahead of its results:

B2: A219 (antibody, human IgG1, V domains shown)
VH: B1 VH with E52D, I58T, G66V, M70I, M81L, W105V
VL: B1 VL
% Inhibition at 1 nM Ig (inhibition of interferon gamma release in human blood): 59.8%
% Inhibition at 10 nM Ig (inhibition of interferon gamma release in human blood): 75.2%

B3: A217 (antibody, human IgG1, V domains shown)
VH: B1 VH with E52D, I58T, G66V, M70I, W105V
VL: B1 VL
% Inhibition at 1 nM Ig (inhibition of interferon gamma release in human blood): 46%
% Inhibition at 10 nM Ig (inhibition of interferon gamma release in human blood): 72.2%

B5: A213 (antibody, human IgG1, V domains shown)
VH: B1 VH with K38R, E52D, I58T, G66V, M70I, R72T, W105V
VL: B1 VL
% Inhibition at 1 nM Ig (inhibition of interferon gamma release in human blood): 48.6%
% Inhibition at 10 nM Ig (inhibition of interferon gamma release in human blood): 69.8%

B6: A212 (antibody, human IgG1, V domains shown)
VH: QVQLVQSGAEVKKPGASVKVSCKASGFDIQDTYMHWVRQRPGQGLEWIGRIDPASGHTKYDPKFQVRATITTDTSTSTAYLELSSLRSEDTAVYYCARSGGLPDVWGQGTTVTVSS
VL: B1 VL
% Inhibition at 1 nM Ig (inhibition of interferon gamma release in human blood): 46.8%
% Inhibition at 10 nM Ig (inhibition of interferon gamma release in human blood): 71.2%
